Laboratory results published in patent publication US20070060518A1.

Columns and labels:
[1] = target: HLA-A*0201 class I monomer on avidin-coated plates (iTopia Epitope Discovery System) (human); assay: iTopia off-rate assay (FIG. 26)
[2] = target: HLA-A*0201 class I monomer on avidin-coated plates (iTopia Epitope Discovery System) (human); assay: iTopia affinity assay (FIGS. 27A and 27B)

t1/2 [1] | fold reduction of ED50 against the native peptide [2] | Substance
17.2 h | – | PRAME425-433 analog with Nva at PΩ (peptide)
– | > 4 fold | PRAME425-433 S425F L433Nle analog (peptide)
